This is an account of results in patent publication US20240270821A1, “GIP/GLP1/GCG TRI-RECEPTOR AGONISTS AND USES THEREOF” (priority 2023, published 2024).

Common to all, as to assay: cell-based or functional assay
For one experiment, the target named is hGLP-1R (Homo sapiens, UniProt P43220).
Experiment [1] deals with T1, human GIP receptor (human) (UniProt P48546).
T1 sequence (looked up): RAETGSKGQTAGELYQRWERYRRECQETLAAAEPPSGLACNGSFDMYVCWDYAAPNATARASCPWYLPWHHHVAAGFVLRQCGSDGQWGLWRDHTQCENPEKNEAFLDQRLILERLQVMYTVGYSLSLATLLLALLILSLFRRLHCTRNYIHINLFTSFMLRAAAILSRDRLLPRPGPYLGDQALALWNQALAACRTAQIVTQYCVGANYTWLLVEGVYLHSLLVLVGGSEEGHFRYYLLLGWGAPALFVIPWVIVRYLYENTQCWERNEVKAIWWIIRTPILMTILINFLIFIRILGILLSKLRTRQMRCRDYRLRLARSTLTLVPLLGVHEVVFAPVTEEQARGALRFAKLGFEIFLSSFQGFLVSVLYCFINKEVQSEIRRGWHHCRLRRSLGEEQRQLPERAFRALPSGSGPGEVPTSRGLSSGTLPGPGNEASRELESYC

The target of experiment [2] is human glucagon receptor (human) (UniProt P47871).

Starred links: 1 amine or outer side, 2 acyl side, 3 side chain; linkers in the order of their positions; H or OH if unused. Non-standard residues stand in square brackets, D forms with d. Groups on a side chain read outwards from the residue. No end group written: not given here. *: point of attachment. C18 diacid = O=C(O)CCCCCCCCCCCCCCCCC(=O)*; γGlu = O=C(O)[C@H](CCC(=O)[*:2])N[*:1]; αMe4Pal = C[C@](N)(Cc1ccncc1)C(=O)O; 4Pal = N[C@@H](Cc1ccncc1)C(=O)O; αMeL = CC(C)C[C@](C)(N)C(=O)O; Orn = NCCC[C@H](N)C(=O)O; Dab = NCC[C@H](N)C(=O)O; Aib = CC(C)(N)C(=O)O

Chain of hGLP-1R (P43220 24-463): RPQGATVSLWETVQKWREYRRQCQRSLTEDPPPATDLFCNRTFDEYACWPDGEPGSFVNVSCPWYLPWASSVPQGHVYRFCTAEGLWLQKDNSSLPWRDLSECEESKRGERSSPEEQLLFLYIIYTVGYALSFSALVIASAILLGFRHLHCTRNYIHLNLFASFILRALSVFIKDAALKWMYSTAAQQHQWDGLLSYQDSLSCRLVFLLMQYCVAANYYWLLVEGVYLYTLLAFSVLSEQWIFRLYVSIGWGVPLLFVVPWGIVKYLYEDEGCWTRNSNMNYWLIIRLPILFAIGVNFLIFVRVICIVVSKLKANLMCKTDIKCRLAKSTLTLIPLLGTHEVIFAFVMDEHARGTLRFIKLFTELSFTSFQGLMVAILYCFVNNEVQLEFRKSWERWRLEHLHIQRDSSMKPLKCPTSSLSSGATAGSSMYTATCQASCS
Chain of human glucagon receptor (human) (P47871 26-477): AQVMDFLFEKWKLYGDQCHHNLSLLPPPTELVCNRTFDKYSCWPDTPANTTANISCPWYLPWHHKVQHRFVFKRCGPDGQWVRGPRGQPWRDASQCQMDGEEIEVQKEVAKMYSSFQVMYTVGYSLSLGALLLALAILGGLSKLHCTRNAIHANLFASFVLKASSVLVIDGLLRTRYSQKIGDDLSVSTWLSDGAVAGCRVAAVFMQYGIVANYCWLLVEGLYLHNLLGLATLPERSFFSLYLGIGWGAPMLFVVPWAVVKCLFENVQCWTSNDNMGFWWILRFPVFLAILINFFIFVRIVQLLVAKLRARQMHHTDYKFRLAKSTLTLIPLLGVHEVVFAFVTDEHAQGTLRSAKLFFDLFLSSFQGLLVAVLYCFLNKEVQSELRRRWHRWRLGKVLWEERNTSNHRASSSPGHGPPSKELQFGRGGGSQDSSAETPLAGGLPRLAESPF

B1: Example 1048 (peptide)
chain: YXQGTFTSDFSXXLDXKAQXAFIEYLLEGGPSSGAPPPGGSEE
modifications: non-natural residues (Aib, Orn, αMeL); lipidated Lys; C-terminal amide; synthetic construct; SITE 2: note = 2-Aminoisobutyric Acid; SITE 12: note = L-ornithine; SITE 13: note = alpha-methyl-leucine; SITE 16: note = L-ornithine; SITE 17: note = Lysine is chemically modified through conjugation of the epsilon-amino group of the Lysine side chain with (gamma-Glu)2-CO-(CH2)
With B1, the Relative cAMP EC50 with hGLP-1R is 6.23 nM; in experiment [1] it was 0.356 nM; in experiment [2], 6.9 nM. Also, the values for the cAMP Rel EC50, nM (1% HSA) (in the experiment with hGLP-1R; in experiment [1]; in experiment [2]) were 1900 nM, 108 nM and 1930 nM, respectively.

B2: Example 1053 (peptide)
chain: YXQGTFTSDFSXXLDXKAQXAFIEXLLAGGPSSGAPPPEGSEE
modifications: non-natural residues, (γGlu)2-C18 diacid lysine acylation, C-terminal amide; synthetic construct; SITE 2: note = 2-Aminoisobutyric Acid; SITE 12: note = L-ornithine; SITE 13: note = alpha-methyl-leucine; SITE 16: note = L-ornithine; SITE 17: note = Lysine is chemically modified through conjugation of the epsilon-amino group of the Lysine side chain with (gamma-Glu)2-CO-(CH2)
For B2, the Relative cAMP EC50 in the experiment with hGLP-1R stood at 6.2 nM; in experiment [1], 0.123 nM; in experiment [2], 10.4 nM. The cAMP Rel EC50 (1% HSA) in experiment [1] came to 19.3 nM; in experiment [2] it was 3470 nM.

B3: Example 1057 (peptide)
chain: YXQGTFTSDXSQXLDXKAQXAFIEYLLAGGPSSGAPPPSGSEE
modifications: non-natural residues, lipidated Lys, C-terminal amide; synthetic construct; SITE 2: note = 2-Aminoisobutyric Acid; SITE 10: note = 3-(4-Pyridyl)-L-alanine; SITE 13: note = alpha-methyl-leucine; SITE 16: note = L-ornithine; SITE 17: note = Lysine is chemically modified through conjugation of the epsilon-amino group of the Lysine side chain with (Glu)-(ga)
As for B3, the Relative cAMP EC50 with hGLP-1R worked out at 5.16 nM; in experiment [1], 0.128 nM; in experiment [2], 5.29 nM. In addition, the cAMP Rel EC50 (1% HSA) worked out at 25.9 nM in experiment [1] and 2780 nM in experiment [2].

B4: Example 1035 (peptide)
chain: YXQGTFTSDXSQXLDXKAQXAFIEYLIAGGPSSGAPPPSGSEE
modifications: non-natural residues; acylated Lys; C-terminal amide; synthetic construct; SITE 2: note = 2-Aminoisobutyric Acid; SITE 10: note = 3-(4-Pyridyl)-L-alanine; SITE 13: note = alpha-methyl-leucine; SITE 16: note = L-ornithine; SITE 17: note = Lysine is chemically modified through conjugation of the epsilon-amino group of the Lysine side chain with (gamma-Gl)
Regarding B4, the cAMP Rel EC50, nM (1% HSA) in the experiment with hGLP-1R was 167 nM; in experiment [1], 16 nM; in experiment [2], 1380 nM.

B5: Example 1056 (peptide)
chain: YXQGTFTSDXSQXLDXKAQXAFIEYLLAGGPSSGAPPPSGSEE
modifications: non-natural residues; lipidated Lys; C-terminal amide; synthetic construct; SITE 2: note = 2-Aminoisobutyric Acid; SITE 10: note = 3-(4-Pyridyl)-L-alanine; SITE 13: note = alpha-methyl-leucine; SITE 16: note = L-ornithine; SITE 17: note = Lysine is chemically modified through conjugation of the epsilon-amino group of the Lysine side chain with (gamma-Gl)
With B5, the results for the Relative cAMP EC50 (with hGLP-1R; in experiment [1]; in experiment [2]) were 4.25 nM, 0.0929 nM and 3.98 nM, respectively. The cAMP Rel EC50 (1% HSA) worked out at 29.6 nM in experiment [1] and 1650 nM in experiment [2].

Y[Aib]QGTFTSD[4Pal]S[Dab][αMeL]LD[Orn]K([γGlu-γGlu-C18 diacid])AQ[Aib]AFIE[αMe4Pal]LLAGGPSSGAPPPEGSEE-NH2 [Example 1054]: the Relative cAMP EC50 with hGLP-1R amounted to 9.53 nM; in experiment [1], 0.797 nM; in experiment [2] it was 8.06 nM. In addition, the cAMP Rel EC50 (1% HSA) in experiment [1] was 79.4 nM; in experiment [2], 1630 nM.

B6: Example 1038 (peptide)
chain: YXQGTFTSDFSQXLDXKAQXAFIEYLLEAGPSSGAPPPSGSEEE
modifications: synthetic construct; SITE 2: note = 2-Aminoisobutyric Acid; SITE 13: note = alpha-methyl-leucine; SITE 16: note = L-ornithine; SITE 17: note = Lysine is chemically modified through conjugation of the epsilon-amino group of the Lysine side chain with (2-[2-(2-Amino-ethoxy)-ethoxy]-acetyl)-(gamma-Glu)
On to B6, for which the Relative cAMP EC50 with hGLP-1R amounted to 1.45 nM; in experiment [1], 0.134 nM; in experiment [2] it was 5.93 nM. Besides, the cAMP Rel EC50, nM (1% HSA) in the experiment with hGLP-1R was found to be 349 nM; in experiment [1], 29.8 nM; in experiment [2], 1300 nM.

B7: Example 1040 (peptide)
chain: YXQGTFTSDFSQXLDXKAQXAFIEXLLEAGPSSGAPPPSGSEEE
modifications: Aib, αMeL, Orn, Me4Pal; acylated K; C-terminal amide; synthetic construct; SITE 2: note = 2-Aminoisobutyric Acid; SITE 13: note = alpha-methyl-leucine; SITE 16: note = L-ornithine; SITE 17: note = Lysine is chemically modified through conjugation of the epsilon-amino group of the Lysine side chain with (gamma-Glu)2-CO-(CH2)16-CO2H; SITE 20: note = 2-Am
As to B7, the cAMP Rel EC50, nM (1% HSA) was 322 nM in the experiment with hGLP-1R, 20.8 nM in experiment [1] and 2020 nM in experiment [2].

B8: Example 1039 (peptide)
chain: YXQGTFTSDFSQXLDXKAQXAFIEYLLEAGPSSGAPPPSGSEEE
modifications: not fully specified; synthetic construct; SITE 2: note = 2-Aminoisobutyric Acid; SITE 13: note = alpha-methyl-leucine; SITE 16: note = L-ornithine; SITE 17: note = Lysine is chemically modified through conjugation of the epsilon-amino group of the Lysine side chain with (gamma-Glu)2-CO-(CH2)16-CO2H; SITE 20: note = 2-Am
Consider B8, for which the Relative cAMP EC50 came to 1.65 nM with hGLP-1R, 0.118 nM in experiment [1] and 7.46 nM in experiment [2]. In addition, the cAMP Rel EC50, nM (1% HSA) with hGLP-1R is 413 nM; in experiment [1] it was 26.8 nM; in experiment [2], 2020 nM.

B9: Example 1047 (peptide)
chain: YXQGTFTSDFSXXLDKKAQXAFIEYLLEGGPSSGAPPPGGSEE
modifications: non-natural residues, C-terminal amide, acylated Lys with fatty diacid; synthetic construct; SITE 2: note = 2-Aminoisobutyric Acid; SITE 12: note = L-ornithine; SITE 13: note = alpha-methyl-leucine; SITE 17: note = Lysine is chemically modified through conjugation of the epsilon-amino group of the Lysine side chain with (gamma-Glu)2-CO-(CH2)16-CO2H; SITE 20: note = 2-Am
As to B9, the Relative cAMP EC50 with hGLP-1R came out at 16.2 nM; in experiment [1] it was 0.28 nM; in experiment [2] it was 8.18 nM. For the same molecule, the cAMP Rel EC50, nM (1% HSA) with hGLP-1R was 1960 nM; in experiment [1], 60.8 nM; in experiment [2], 1510 nM.

B10: Example 1049 (peptide)
chain: YXQGTFTSDFSXXLDXKAQXAFIEXLLEGGPSSGAPPPGGSEE
modifications: Aib, Orn, αMeL, αMeY; acylated Lys; C-terminal amide; synthetic construct; SITE 2: note = 2-Aminoisobutyric Acid; SITE 12: note = L-ornithine; SITE 13: note = alpha-methyl-leucine; SITE 16: note = L-ornithine; SITE 17: note = Lysine is chemically modified through conjugation of the epsilon-amino group of the Lysine side chain with (gamma-Glu)2-CO-(CH2)
On to B10, for which the values for the Relative cAMP EC50 (in the experiment with hGLP-1R; in experiment [1]; in experiment [2]) were 2.23 nM, 0.24 nM and 6.33 nM, respectively. The cAMP Rel EC50 (1% HSA) with hGLP-1R amounted to 780 nM; in experiment [1], 56.2 nM; in experiment [2], 1280 nM.

B11: Example 1050 (peptide)
chain: YXQGTFTSDFSXXLDXKAQXAFIEXLLEGGPSSGAPPPGGSEE
modifications: non-natural residues; Lys acylated C18 diacid via γGlu2; C-term amide; synthetic construct; SITE 2: note = 2-Aminoisobutyric Acid; SITE 12: note = L-ornithine; SITE 13: note = alpha-methyl-leucine; SITE 16: note = L-ornithine; SITE 17: note = Lysine is chemically modified through conjugation of the epsilon-amino group of the Lysine side chain with (gamma-Glu)2-CO-(CH2)
Take B11: the Relative cAMP EC50 with hGLP-1R is 7.65 nM; in experiment [1], 0.152 nM; in experiment [2], 6.8 nM. In addition, the cAMP Rel EC50 (1% HSA) with hGLP-1R amounted to 1240 nM; in experiment [1], 68.5 nM; in experiment [2], 2040 nM.

With Y[Aib]QGTFTSD[4Pal]S[Dab][αMeL]LD[Orn]K([γGlu-γGlu-C18 diacid])AQ[αMe4Pal]AFIE[αMe4Pal]LLAGGPSSGAPPPEGSEE-NH2 [Example 1055], the results for the Relative cAMP EC50 (with hGLP-1R; in experiment [1]; in experiment [2]) were 14.6 nM, 0.366 nM and 1.88 nM, respectively. Also, the results for the cAMP Rel EC50 (1% HSA) in experiment [1] and in experiment [2] were 78.9 nM and 450 nM, respectively.
